Test results published in US20240209076A1 (KODIAK SCIENCES, published 2024).
Residue numbers refer to the chain shown, from its start. Numbers in names are those of the source.

B1: anti-IL-6 Fab, light chain Y48F (Fab, V domains shown)
VH: EVQLVESGGGLVQPGGSLRLSCAASGFTFSPFAMSWVRQAPGKGLEWVAKISPGGSWTYYSDTVTGRFTFSLDTSKSTAYLQMNSLRAEDTAVYYCARQLWGYYALDIWGQGTLVTVSS
VL: DIQLTQSPSSLSASVGDRVTITCSASISVSYMYWYQQKPGKAPKLLIFDMSNLASGVPSRFSGSGSGTDFTLTISSLQPEDFATYYCMQWSGYPYTFGQGTKVEIK
notes: see m39
B2: anti-IL-6 Fab, heavy chain A105Q (Fab, V domains shown)
VH: B1 VH with A105Q
VL: B1 VL with F48Y
B3: anti-IL-6 Fab, heavy chain A97V (Fab, V domains shown)
VH: B1 VH with A97V
VL: B1 VL with F48Y
B4: anti-IL-6 Fab, heavy chain Y103S (Fab, V domains shown)
VH: B1 VH with Y103S
VL: B1 VL with F48Y
B5: anti-IL-6 Fab, heavy chain Y104V (Fab, V domains shown)
VH: B1 VH with Y104V
VL: B1 VL with F48Y
B6: anti-IL-6 Fab, heavy chain Q99H (Fab, V domains shown)
VH: B1 VH with Q99H
VL: B1 VL with F48Y
B7: anti-IL-6 Fab, heavy chain Q99A (Fab, V domains shown)
VH: B1 VH with Q99A
VL: B1 VL with F48Y
B8: anti-IL-6 Fab, heavy chain I108E (Fab, V domains shown)
VH: B1 VH with I108E
VL: B1 VL with F48Y
B9: anti-IL-6 Fab, heavy chain D107E (Fab, V domains shown)
VH: B1 VH with D107E
VL: B1 VL with F48Y
B10: anti-IL-6 Fab, heavy chain G102D (Fab, V domains shown)
VH: B1 VH with G102D
VL: B1 VL with F48Y
B11: anti-IL-6 Fab, heavy chain L100K (Fab, V domains shown)
VH: B1 VH with L100K
VL: B1 VL with F48Y
B12: anti-IL-6 Fab, heavy chain Y103E (Fab, V domains shown)
VH: B1 VH with Y103E
VL: B1 VL with F48Y
B13: anti-IL-6 Fab, heavy chain I108S (Fab, V domains shown)
VH: B1 VH with I108S
VL: B1 VL with F48Y
B14: anti-IL-6 Fab, light chain Y95G (Fab, V domains shown)
VH: B1 VH
VL: B1 VL with F48Y, Y95G
notes: see m39
B15: anti-IL-6 Fab, light chain Y48W (Fab, V domains shown)
VH: B1 VH
VL: B1 VL with F48W
notes: see m39
B16: anti-IL-6 Fab, light chain Y95I (Fab, V domains shown)
VH: B1 VH
VL: B1 VL with F48Y, Y95I
notes: see m39
B17: anti-IL-6 antibody, light chain Y31F (heavy chain WT) (antibody, V domains shown)
VH: B1 VH
VL: B1 VL with Y31F, F48Y
notes: See note of m2; also called WT / Y31F
B18: anti-IL-6 antibody, light chain L53H (heavy chain WT) (antibody, V domains shown)
VH: B1 VH
VL: B1 VL with F48Y, L53H
notes: See note of m2; also called WT / L53H
B19: anti-IL-6 antibody, light chain A54G (heavy chain WT) (antibody, V domains shown)
VH: B1 VH
VL: B1 VL with F48Y, A54G
notes: See note of m2; also called WT / A54G
B20: anti-IL-6 antibody, light chain A54L (heavy chain WT) (antibody, V domains shown)
VH: B1 VH
VL: B1 VL with F48Y, A54L
notes: See note of m2; also called WT / A54L
B21: anti-IL-6 antibody, light chain Q89S (heavy chain WT) (antibody, V domains shown)
VH: B1 VH
VL: B1 VL with F48Y, Q89S
notes: See note of m2; also called WT / Q89S
B22: anti-IL-6 antibody, light chain L53R (heavy chain WT) (antibody, V domains shown)
VH: B1 VH
VL: B1 VL with F48Y, L53R
notes: See note of m2; also called WT / L53R
B23: anti-IL-6 antibody, light chain Y31G (heavy chain WT) (antibody, V domains shown)
VH: B1 VH
VL: B1 VL with Y31G, F48Y
notes: See note of m2; also called WT / Y31G
B24: anti-IL-6 antibody, light chain V29L (heavy chain WT) (antibody, V domains shown)
VH: B1 VH
VL: B1 VL with V29L, F48Y
notes: See note of m2; also called WT / V29L
B25: anti-IL-6 antibody, light chain S55W (heavy chain WT) (antibody, V domains shown)
VH: B1 VH
VL: B1 VL with F48Y, S55W
notes: See note of m2; also called WT / S55W
B26: anti-IL-6 antibody, light chain S55L (heavy chain WT) (antibody, V domains shown)
VH: B1 VH
VL: B1 VL with F48Y, S55L
notes: See note of m2; also called WT / S55L
B27: anti-IL-6 antibody, light chain N52S (heavy chain WT) (antibody, V domains shown)
VH: B1 VH
VL: B1 VL with F48Y, N52S
notes: See note of m2; also called WT / N52S
B28: anti-IL-6 antibody, light chain L53W (heavy chain WT) (antibody, V domains shown)
VH: B1 VH
VL: B1 VL with F48Y, L53W
notes: See note of m2; also called WT / L53W
B29: anti-IL-6 antibody, light chain L46V (heavy chain WT) (antibody, V domains shown)
VH: B1 VH
VL: B1 VL with L46V, F48Y
notes: See note of m2; also called WT / L46V
B30: anti-IL-6 antibody, light chain S51D (heavy chain WT) (antibody, V domains shown)
VH: B1 VH
VL: B1 VL with F48Y, S51D
notes: See note of m2; also called WT / S51D
B31: anti-IL-6 antibody, light chain S51R (heavy chain WT) (antibody, V domains shown)
VH: B1 VH
VL: B1 VL with F48Y, S51R
notes: See note of m2; also called WT / S51R
B32: anti-IL-6 antibody, light chain S55R (heavy chain WT) (antibody, V domains shown)
VH: B1 VH
VL: B1 VL with F48Y, S55R
notes: See note of m2; also called WT / S55R
B33: anti-IL-6 antibody, light chain S30A (heavy chain WT) (antibody, V domains shown)
VH: B1 VH
VL: B1 VL with S30A, F48Y
notes: See note of m2; also called WT / S30A
B34: anti-IL-6 antibody, light chain S91A (heavy chain WT) (antibody, V domains shown)
VH: B1 VH
VL: B1 VL with F48Y, S91A
notes: See note of m2; also called WT / S91A
B35: anti-IL-6 antibody, light chain S30G (heavy chain WT) (antibody, V domains shown)
VH: B1 VH
VL: B1 VL with S30G, F48Y
notes: See note of m2; also called WT / S30G
B36: anti-IL-6 antibody, light chain I47V (heavy chain WT) (antibody, V domains shown)
VH: B1 VH
VL: B1 VL with I47V, F48Y
notes: See note of m2; also called WT / 147V
B37: anti-IL-6 antibody, light chain S55Y (heavy chain WT) (antibody, V domains shown)
VH: B1 VH
VL: B1 VL with F48Y, S55Y
notes: See note of m2; also called WT / S55Y
B38: anti-IL-6 antibody, light chain S51K (heavy chain WT) (antibody, V domains shown)
VH: B1 VH
VL: B1 VL with F48Y, S51K
notes: See note of m2; also called WT / S51K
B39: anti-IL-6 antibody, light chain Q89A (heavy chain WT) (antibody, V domains shown)
VH: B1 VH
VL: B1 VL with F48Y, Q89A
notes: See note of m2; also called WT / Q89A
B40: anti-IL-6 antibody, light chain A54Y (heavy chain WT) (antibody, V domains shown)
VH: B1 VH
VL: B1 VL with F48Y, A54Y
notes: See note of m2; also called WT / A54Y

target: recombinant human IL-6 (human, UniProt P05231 30-212); assay: SPR, IL-6 on CM5 chip, Fab lysate, 25 C
Target sequence in this assay (P05231 30-212 limits assumed): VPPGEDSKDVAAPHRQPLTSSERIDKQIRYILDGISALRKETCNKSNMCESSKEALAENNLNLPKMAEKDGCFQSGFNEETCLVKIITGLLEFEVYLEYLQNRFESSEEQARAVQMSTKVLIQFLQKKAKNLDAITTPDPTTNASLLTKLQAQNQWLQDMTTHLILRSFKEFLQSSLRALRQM

koff [s⁻¹]	Binder
0.00537	B1
0.00401	B2
0.00412	B3
0.00502	B4
0.00381	B5
0.00441	B6
0.00388	B7
0.00308	B8
0.00438	B9
0.00389	B10
0.00287	B11
0.00512	B12
0.00352	B13
0.00462	B14
0.00563	B15
0.00608	B16

target: T1, recombinant human IL-6 (human, UniProt P05231 30-212); assay: SPR Biacore, supernatant Ab on Protein A chip, IL-6 analyte, 25 C
T1 construct: Bought protein
Protocol: Antibodies were captured on a Protein A chip (GE) by injecting 1:20 dilution of cell supernatant at 10 μL/min for 60 seconds. […] The sensor chip was regenerated by a 60 seconds injection of 10 mM Glycine pH 1.7 at flow rate of 50 μL/min. […] For this setup, 1 μg/mL of purified antibody was injected over a Protein A chip at 10 μL/min for 25-28 seconds. Data analysis for supernatant and purified samples were performed using BIAevaluation software (GE). All sensorgrams were double reference subtracted and fit using a 1:1 Langmuir binding model.
T1 sequence (P05231 30-212 limits assumed): as above

Kd [nM]	koff [s⁻¹]	kon [M⁻¹ s⁻¹]	Binder
0.472	0.000138	292000	B17
0.401	0.000218	544000	B18
0.416	0.000198	475000	B19
0.499	0.00021	420000	B20
0.752	0.000272	362000	B21
0.446	0.000185	416000	B22
0.666	0.000203	305000	B23
0.487	0.000171	351000	B24
0.401	0.000226	563000	B25
0.329	0.00022	668000	B26
0.353	0.000152	430000	B27
0.00518	6.14e-06	1.19e+06	B28
0.442	0.000203	460000	B29
0.296	0.000216	729000	B30
0.463	0.000231	499000	B31
0.109	0.000107	987000	B32
0.639	0.000163	255000	B33
0.407	0.000139	341000	B34
0.316	0.000173	548000	B35
0.414	0.000195	471000	B36
0.461	0.000201	436000	B37
0.535	0.000212	396000	B38
0.419	0.000227	543000	B39
0.168	0.000109	652000	B40
